In patent US20240182590A1, “METHOD OF TREATMENT OF PATIENTS HAVING REDUCED SENSITIVITY TO A BCL-2 INHIBITOR” (argenx BV, priority 2020, published 2024):
“Also recorded” adds a separate entry of the source.

B1: cusatuzumab: monoclonal IgG1 anti-CD70 antibody, afucosylated for enhanced ADCC; CDR, VH and VL sequences in Table 1 (antibody, V domains shown)
VH: EVQLVESGGGLVQPGGSLRLSCAASGFTFSVYYMNWVRQAPGKGLEWVSDINNEGGTTYYADSVKGRFTISRDNSKNSLYLQMNSLRAEDTAVYYCARDAGYSNHVPIFDSWGQGTLVTVSS
VL: QAVVTQEPSLTVSPGGTVTLTCGLKSGSVTSDNFPTWYQQTPGQAPRLLIYNTNTRHSGVPDRFSGSILGNKAALTITGAQADDEAEYFCALFISNPSVEFGGGTQLTVLG

Assays:
[1] = system: ROS-low LSCs from mono-AML and prim-AML; conditions: versus ROS-low LSCs from primitive AML (Pei et al. 2020); cited from earlier work
[2] = cited from earlier work
[3] = system: total mononuclear cell fraction of M4/5 samples; conditions: M4/5 AML samples, ex vivo; cited from earlier work
[4] = system: CD70 positive monocytic AML cells; experiment: Cusatuzumab-mediated NK-dependent ADCC on primary AML bone marrow samples; format: cell-based, human; conditions: 10 μg/ml, 24 hours
Text: FIG. 7B is a bar graph showing the effect on monocytic and primitive AML cells. following administration of cusatuzumab, 41D12 FcDead antibody and a vehicle control. […] One-way ANOVA test was used to determine significance. *p<0.05.
FIG. 7C is a bar graph showing the effect on monocytic AML cells following administration of cusatuzumab, 41D12 FcDead antibody and a vehicle control. […] One-way ANOVA test was used to determine significance. ***p<0.001.
Cusatuzumab is an afucosylated anti-human CD70 antibody with enhanced properties to mediate NK-dependent antibody-dependent cellular cytotoxicity (ADCC) (Silence et al. 2014). VEN+AZA resistant CD70 positive monocytic AML (CD45^bright/SSC^high/CD38^+/CD34^−/CD33^+/CD11b^+/CD70^+) and mixed phenotype samples containing CD70 positive monocytic cells (CD45^bright/SSC^high/CD38^+/CD34^−/CD33^+/CD11b^+/CD70^+) and CD70 negative VEN+AZA sensitive primitive cells (CD45^medium/SSC^low/CD34^−/CD33^+/CD11b^+/CD70^− containing both CD38^+ and CD38^− populations) (FIG. 7A) were tested for sensitivity to cusatuzumab-mediated ADCC. Both types of primary bone marrow samples were treated with cusatuzumab at 10 μg/ml concentration and co-incubated with human NK cells isolated by a negative selection from healthy donor PBMCs. NK cells were added in 1:5 and 1:15 target to effector cells (T:E) ratio to monocytic AML and mixed phenotype bone marrow samples, respectively. Cells were co-cultured for 24 hours at 37° C. in cell culture incubator. Flow cytometry analysis was performed in order to measure number of primitive and monocytic AML cells and estimate the level of ADCC for particular sample. […] This supports the specificity of cusatuzumab-mediated effects in the targeting of CD70-positive VEN+AZA resistant monocytic AML cells.

[5] = system: LSCs from VEN+AZA resistant monocytic AML bone marrow samples; experiment: Colony forming unit (CFU) assay after incubation with antibody and NK cells; format: cell-based, human; conditions: 10 μg/ml antibody, NK cells 1:5 T:E, 24-hour incubation, then 14 days in methocult medium
Description: FIG. 9 is a bar graph showing the effect of antibody treatment on leukemic stem cells from CD70 positive VEN+AZA resistant monocytic AML bone marrow samples. Data is normalized to the no antibody control colony forming units (CFU) for isotype control, blocking anti-CD70 antibody 41D12 FcDead and cusatuzumab. VEN+AZA resistant monocytic AML bone marrow samples were incubated with NK cells (1:5 T:E ratio) in the presence of antibodies (10 μg/ml) and then cultured in CFU medium in order to determine if LSCs were also efficiently targeted by cusatuzumab-mediated NK-dependent ADCC. […] One-way ANOVA test was used to determine significance. ****p<0.0001.
In order to test if CD70 positive LSCs from VEN+AZA resistant monocytic AML bone marrow samples could be targeted by cusatuzumab, bone marrow samples coming from VEN+AZA resistant samples were first incubated with cusatuzumab (10 μg/ml) and NK cells isolated from PBMCs from healthy donor (1:5 T:E ratio). After a 24-hour incubation samples were moved to methocult medium and further cultured in order to check if LSCs were targeted by cusatuzumab-mediated ADCC. No treatment, human IgG1 isotype control and blocking 41D12 FcDead antibody were used as negative controls. Cells were incubated in cell culture incubator at 37° C. for 14 days and colony forming units (CFU) were estimated by counting growing colonies.

[6] = system: VEN+AZA resistant monocytic AML cells; experiment: Patient-derived xenograft mouse model, monocytic AML cells in mouse bone marrow; format: in vivo, NSGS mice; conditions: 3 doses every 3 days, cusatuzumab 10 mg/kg, Ven 100 mg/kg + Aza 3 mg/kg
Description: FIG. 10 is a bar graph showing the efficacy of anti-CD70 antibody treatment in the presence of NK cells in a patient-derived xenograft mouse model. NSGS mice were engrafted with VEN+AZA resistant monocytic AML bone marrow sample. When engraftment level in bone marrow reached around 25% of leukemic cells, animals were treated 3 times every 3 days with cusatuzumab or VEN+AZA with or without a single infusion of 1.5×10^6 NK cells. After 9 days animals were sacrificed, bone marrow from femur isolated and the number of malignant monocytic cells in bone marrow was determined. […] Mann-Whitney test was used to determine significance. *p<0.05, **p<0.01, ***p<0.001, ****p<0.0001.
Patient samples injected in NSGS mice engraft in mouse bone marrow. The efficiency of anti-leukemic compounds can be measured stringently using therapeutic approaches after full engraftment of patient-derived samples and by determination of the reduction of malignant cells in mouse bone marrow. 2×10^6 cells from bone marrow from VEN+AZA resistant monocytic AML per NSGS mouse were engrafted for 42 days. One cohort of animals was treated with vehicle, combination of 100 mg/kg Ven and 3 mg/kg Aza or 10 mg/kg cusatuzumab. […] One day after the third dose animals were sacrificed and bone marrow from femur was isolated and samples were analysed by flow cytometry to determine the number of monocytic AML cells. […]

[7] = target: T1, interaction of CD70 with its receptor CD27 (Homo sapiens, UniProt P32970); conditions: Silence et al. (2014); cited from earlier work
T1 sequence (P32970 1-193): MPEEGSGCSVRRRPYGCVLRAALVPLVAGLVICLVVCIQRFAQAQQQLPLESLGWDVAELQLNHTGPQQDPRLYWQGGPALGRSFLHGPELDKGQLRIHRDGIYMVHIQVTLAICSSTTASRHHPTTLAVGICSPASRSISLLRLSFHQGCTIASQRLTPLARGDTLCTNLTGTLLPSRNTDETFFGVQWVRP

[8] = system: CD70-induced CD27 signaling; conditions: Silence et al. (2014); cited from earlier work
[9] = system: leukemic stem cells (LSCs) in AML patients; conditions: in combination with azacitidine; see WO2018/229303; cited from earlier work
[10] = system: CD70-expressing tumor cells; conditions: cited from earlier work

Molecule | resistance of ROS-low LSCs from monocytic AML [1] | aqueous solubility [2] | venetoclax sensitivity [3] | NK cell-dependent ADCC of monocytic cells ([4]; VEN+AZA resistant monocytic AML bone marrow sample, NK cells 1:5 T:E) | NK cell-dependent ADCC of monocytic cells ([4]; VEN+AZA resistant monocytic AML bone marrow sample, NK cells 1:5 T:E, listed as Cusatuzumab) | NK cell-dependent ADCC of monocytic cells ([4]; mixed phenotype AML bone marrow sample, NK cells 1:15 T:E) | NK cell-dependent ADCC of monocytic cells ([4]; mixed phenotype AML bone marrow sample, NK cells 1:15 T:E, listed as Cusatuzumab) | number of growing colonies (CFU) versus no treatment control [5] | malignant human CD45+CD11b+CD117− cells in mouse bone marrow ([6]; in the absence of human NK cells) | malignant human CD45+CD11b+CD117− cells in mouse bone marrow ([6]; in the presence of human NK cells (1.5×10^6)) | interaction of CD70 with its receptor CD27 [7] | CD70-induced CD27 signaling [8] | leukemic stem cells (LSCs) in AML patients [9] | antibody dependent cellular phagocytosis (ADCP) of CD70-expressing cells ([10]; Silence et al. (2014)) | lysis of CD70-expressing tumor cells via antibody dependent cell-mediated cytotoxicity (ADCC) [10] | lysis of CD70-expressing tumor cells via complement dependent cytotoxicity (CDC) [10]
CC1(C)CCC(CN2CCN(c3ccc(C(=O)NS(=O)(=O)c4ccc(NCC5CCOCC5)c([N+](=O)[O-])c4)c(Oc4cnc5[nH]ccc5c4)c3)CC2)=C(c2ccc(Cl)cc2)C1 [venetoclax, 4-(4-{[2-(4-chlorophenyl)-4,4dimethylcyclohex-1-en-1-yl]methyl}piperazin-1-yl)-N-({3-nitro-4-[(tetrahydro-2H-pyran-4ylmethyl)amino]phenyl}sulfonyl)-2-(1H-pyrrolo[2,3-b]pyridin-5-yloxy)benzamide] | increased resistance | very low | decreased |  |  |  |  |  |  |  |  |  |  |  |  | 
B1 |  |  |  | significantly targeted | significantly mediate NK-dependent cell killing | significantly targeted | significantly mediate NK-dependent cell killing | clear drop in the number of growing colonies; also recorded: significantly reduce the number of LSCs | no significant effect | significant reduction; also recorded: significantly reduced levels of monocytic AML cells | inhibit the interaction of CD70 with its receptor CD27 | inhibit CD70-induced CD27 signaling | efficiently reduced | increase antibody dependent cellular phagocytosis (ADCP) | lyse CD70-expressing tumor cells | lyse CD70-expressing tumor cells
